Measured values published in patent EP1280904B1 (CALIFORNIA INSTITUTE OF TECHNOLOGY, dated 2005).
Where no end group is shown, it is not given here.

Legend:
Experiment in all cases: cell-based or functional assay
[1] = target: MRGA4-GFP fusion protein (mouse) (UniProt Q91WW2)
MRGA1-GFP fusion protein = target: T1, MRGA1-GFP fusion protein (mouse, UniProt Q91WW5 1-304)
T1 sequence: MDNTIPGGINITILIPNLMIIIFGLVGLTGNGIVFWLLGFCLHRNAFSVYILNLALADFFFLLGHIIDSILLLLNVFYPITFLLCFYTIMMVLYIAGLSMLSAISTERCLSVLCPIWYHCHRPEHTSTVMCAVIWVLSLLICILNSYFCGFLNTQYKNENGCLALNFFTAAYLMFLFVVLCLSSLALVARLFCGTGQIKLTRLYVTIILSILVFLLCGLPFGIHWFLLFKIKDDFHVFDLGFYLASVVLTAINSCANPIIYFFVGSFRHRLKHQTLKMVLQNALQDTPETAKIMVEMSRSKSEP

MAS1 = target: MAS1

Chain of MRGA4-GFP fusion protein (mouse) (Q91WW2 9-313 A204G limits assumed, form in doubt): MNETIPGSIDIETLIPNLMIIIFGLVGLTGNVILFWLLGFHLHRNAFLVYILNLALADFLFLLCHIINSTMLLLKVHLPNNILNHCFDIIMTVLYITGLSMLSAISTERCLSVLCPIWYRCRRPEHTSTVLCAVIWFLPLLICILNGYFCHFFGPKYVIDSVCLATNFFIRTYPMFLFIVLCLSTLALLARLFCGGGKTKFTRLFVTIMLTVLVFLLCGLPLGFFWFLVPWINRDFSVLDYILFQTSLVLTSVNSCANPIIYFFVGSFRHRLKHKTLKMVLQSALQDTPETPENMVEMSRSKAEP

Molecule: ACTH (peptide)
- EC50 of calcium dose-response, HEK cells expressing G 15 (data not shown) [1]: 200 nM
- EC50 of calcium dose-response, HEK cells expressing G 15 (data not shown) (MRGA1-GFP fusion protein): 60 nM

Molecule: NPAF (peptide)
- EC50 of calcium dose-response, HEK cells expressing G 15 [1]: 60 nM

Molecule: NPFF (peptide)
- EC50 of calcium dose-response, HEK-G 15 cells (MAS1): 400 nM
- EC50 of calcium dose-response, HEK cells expressing G 15 (MRGA1-GFP fusion protein): 200 nM

B1: FLRFamide (peptide)
peptide: FLRF-NH2
- EC50 of calcium dose-response, HEK cells expressing G 15 (MRGA1-GFP fusion protein): 20 nM
